This passage reports binding result and MFI (Median fluorescence intensity) results from patent publication CN116970083A (SHANGHAI UNICAR THERAPY BIO MEDICINE TECH CO LTD, dated 2023).

The target in experiment [1] is T1, Human TROP-2/TACSTD2 Protein, His Tag (带有His标签的人滋养层细胞表面抗原2(Trop2)胞外段蛋白) (human, UniProt P09758 27-274).
T1 construct: extracellular domain; Bought protein; also called Trop2-His; Trop2抗原; not shown: His tag
T1 sequence (looked up): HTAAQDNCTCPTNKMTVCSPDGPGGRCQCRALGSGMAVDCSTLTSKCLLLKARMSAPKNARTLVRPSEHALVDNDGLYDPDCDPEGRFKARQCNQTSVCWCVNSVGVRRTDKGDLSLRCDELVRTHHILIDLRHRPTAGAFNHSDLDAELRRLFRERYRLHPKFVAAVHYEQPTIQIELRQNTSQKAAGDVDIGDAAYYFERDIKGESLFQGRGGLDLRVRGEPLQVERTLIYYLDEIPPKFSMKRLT
The experiment is described as follows: phage ELISA, Trop2-His coated at 1ug/ml, anti-M13-HRP, OD450.

The target of experiment [2] is Trop2 on the surface of tumour cell lines (H1975, MDA-MB-231, Bxpc3, T24, PC-9) (UniProt P09758). The experiment is described as follows: flow cytometry on MDA-MB-231 cells, antibody 5ug/ml, anti-Fc PE; blank cells without antibody MFI 938.
Experiment [3] shares this target. As to the kind of experiment: flow cytometry on Bxpc3 cells, antibody 5ug/ml, anti-Fc PE; blank cells without antibody MFI 557.
Experiment [4] has as its target T1, Human TROP-2/TACSTD2 Protein, His Tag …. As to the kind of experiment: ELISA, Trop2-His coated at 1ug/ml, antibody diluted 3.3-fold from 5ug/ml, anti-human IgG-Fc HRP.
Experiment [5] deals with Trop2 on the surface of tumour cell lines (H1975, MDA-MB-231, Bxpc3, T24, PC-9) (UniProt P09758). As to the kind of experiment: flow cytometry on H1975 cells, antibody 5ug/ml, anti-Fc PE; blank cells without antibody MFI 621.

B1: 抗Trop2阳性克隆3 (T3), scFv displayed on phage (scFv)
scFv: DIQMTQSPSTLSASVGDRVTITCRASQSISSWLAWYQQKPGKAPKLLIYKASSLESGVPPRFSGSGSGAEFTLTISSLQPDDFATYYCQQYNSYPLTFGGGTKVEVKGGGGSGGGGSGGGGSEVQLVQSGGGLVQPGGSLRLSCEDSGFTFSSYWMSWVRQAPGKGLEWVSSISSSSSYIYYADSVKGRFTISRDNAKNSLYLQMNSLRGEDTAVYYCAREQSSSGFDYWGQGTLVTVSS
notes: Tested as phage supernatant (scFv on M13 phage); also called T3单克隆; T3抗Trop2 scFv
Take B1: the binding result in experiment [1] was “binds”.

B2: T3单克隆抗体 (T3抗Trop2单克隆抗体) (antibody, human IgG1, kappa, V domains shown)
VH: EVQLVQSGGGLVQPGGSLRLSCEDSGFTFSSYWMSWVRQAPGKGLEWVSSISSSSSYIYYADSVKGRFTISRDNAKNSLYLQMNSLRGEDTAVYYCAREQSSSGFDYWGQGTLVTVSS
VL: DIQMTQSPSTLSASVGDRVTITCRASQSISSWLAWYQQKPGKAPKLLIYKASSLESGVPPRFSGSGSGAEFTLTISSLQPDDFATYYCQQYNSYPLTFGGGTKVEVKR
notes: also called Trop2抗体
For the molecule B2, the values for the MFI (Median fluorescence intensity) in experiment [2], in experiment [3] and in experiment [5] were 3150, 174000 and 65600, respectively. In experiment [4], the binding result was “binds”.
